Data from patent publication US20090148513A1 (AbbVie / Abbott, published 2009).

Molecular target: rHuTNF (human, UniProt P01375 77-233)
Test: cell-based or functional assay

Sequence of rHuTNF (P01375 77-233 limits assumed): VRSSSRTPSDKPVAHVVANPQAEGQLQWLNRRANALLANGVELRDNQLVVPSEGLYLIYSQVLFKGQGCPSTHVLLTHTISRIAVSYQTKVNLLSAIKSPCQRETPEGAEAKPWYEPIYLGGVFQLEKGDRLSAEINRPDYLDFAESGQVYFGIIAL

B1: MAK195F, F(ab')2 fragment of the murine IgG3 monoclonal anti-hTNFalpha antibody MAK195 (other)
light: DIVMTQSHKFMSTTVGDRVSITCKASQAVSSAVAWYQQKPGQSPKLLIYWASTRHTGVPDRFTGSGSVTDFTLTIHNLQAEDLALYYCQQHYSTPFTFGSGTKLEIKRADAAPTVSIFPPSSEQLTSGGASVVCFLNNFYPKDINVKWKIDGSERQNGVLNSWTDQDSKDSTYSMSSTLTLTKDEYERHNSYTCEATHKTSTSPIVKSFNRNEC
heavy: QVQLKESGPGLVAPSQSLSITCTVSGFSLTDYGVNWVRQPPGKGLEWLGMIWGDGSTDYDSTLKSRLSISKDNSKSQIFLKMNSLQTDDTARYYCAREWHHGPVAYWGQGTLVTVSAATTTAPSVYPLVPGCSDTSGSSVTLGCLVKGYFPEPVTVKWNYGALSSGVRTVSSVLQSGFYSLSSLVTVPSSTWPSQTVICNVAHPASKTELIKRIEPRIPKPSTPPGSSCPPGNILGGPSVF
modifications: N-terminal glutamine completely converted into pyroglutamic acid; partial O-glycosylation at SerH222 (about 70% of Fd' fragments non-glycosylated); deamidation of a single asparagine residue (AsnL157)
How did the “relative biological activity (neutralisation of rHuTNF cytotoxicity on mouse L-929 cells; mean IC50 of reference standard / IC50 of sample x 100%)” value turn out when B1 was run?
Its value is 102%.
